Experimental data reported in publication PMC10533564 (Communications Biology, 2023).

Key:
[1] = target: T1, sTNFR2, monomeric extracellular domains of TNFR2 obtained from etanercept (Homo sapiens, UniProt P20333); experiment: SPR; antibody captured (~400 RU) on anti-human IgG Fc on a CM5 chip, sTNFR2 as analyte in twofold dilution series; PBS with 0.005% Tween 20, pH 7.4, 25 °C; 1:1 global kinetics fit; settings: both partners purified
T1 construct: extracellular domains of TNFR2 as in etanercept; also called TNFR2 ECD; source: from etanercept (Pfizer): IdeS digestion, reduction with 2-mercaptoethylamine, purified (Protein A flow-through, SEC); not shown: Fc (human IgG1, of etanercept), C-terminal, cleaved

[2] = target: T2, tumor necrosis factor-alpha (TNFα) (UniProt P01375); experiment: SPR; TNFα immobilised on a CM5 chip by amine coupling (140 RU); antibodies 10 nM or 100 nM flowed; HBS-EP+, 25 °C; settings: both partners purified
T2 construct: tumor necrosis factor-alpha; source: bought: Peprotech #AF-200-01A (named for the reporter assay)
T2 sequence (P01375 77-233): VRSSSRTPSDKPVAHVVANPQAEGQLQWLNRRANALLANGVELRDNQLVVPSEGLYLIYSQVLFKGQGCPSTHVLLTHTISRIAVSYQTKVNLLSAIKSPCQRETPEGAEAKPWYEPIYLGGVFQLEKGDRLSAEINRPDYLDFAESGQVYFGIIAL

B1: TR45 chimeric conventional IgG (antibody, V domains shown)
VH: EVQLQQSGPEMEKPGASVKISCKASGYSFTGYNMNWVKQSIGKSLEWIGKIDPYYGGTDYNLRFKDKATLTVDKSSSTAYMHLSRLTSEDSAVYYCAREPNYGSNDWYFDVWGAGTTVTVSS
VL: DIQVTQTTSSLSASLGDRVTISCRASQDIDNYLNWYQQRPDGTVKLLIYYTSILHSGVPSRFSGSGSRTDFSLTISSLEEEDFATYFCQQGNTLPWTFGGGTKLEFK
Kd [1]: 19 nM

B2: TR45 cIgG (chimeric, human IgG1/kappa) (antibody, V domains shown)
VH: EVQLQQSGPEMEKPGASVKISCKASGYSFTGYNMNWVKQSIGKSLEWIGKIDPYYGGTDYNLRFKDKATLTVDKSSSTAYMHLSRLTSEDSAVYYCAREPNYGSNDWYFDVWGAGTTVTVSS
VL: DIQVTQTTSSLSASLGDRVTISCRASQDIDNYLNWYQQRPDGTVKLLIYYTSILHSGVPSRFSGSGSRTDFSLTISSLEEEDFATYFCQQGNTLPWTFGGGTKLEFK
binding result [2]: no binding (tested: 10 nM or 100 nM)

B3: TR96 chimeric conventional IgG (antibody, V domains shown)
VH: EVQLQQSGAELVKPGASVKLSCTPSGFNIKDTYMHWVKQRPEQGLEWIGRIDPANGYTEYDPKFQDKATITADTSSNTAYLQLSSLTSEDTAVYYCADTQLYYWGQGTTLTVSS
VL: QIVLTQSPAIMSASLGERVTMTCTASSSVSSTYLHWYQQKPGSSPKLWIYSTSNLASGVPARFSGSGSGTSYSLTISNMEAEDAATYYCHQYHRSPLTFGAGTKLELK
Kd [1]: 0.42 nM
koff [1]: 0.00024 s⁻¹
kon [1]: 580000 M⁻¹ s⁻¹

B4: TR94 cIgG (chimeric, human IgG1/kappa) (antibody, V domains shown)
VH: QVQLQQSGAELARPGTSVKLSCKASGYTFTSYWMQWVKQTPGQGLEWIGAIYPGDGDSRYIQKFKGKATLTADKSSSTAYMQLSSLASEDSAVYYCARDGNYYAMDYWGQGTSVTVSS
VL: QIVLTQSPAIMSASLGERVTITCTASSSVSSTYLHWYQQKPGSSPKLWIYSTSNLASGVPARFSGSGSGTSYSLTISSMEAEDAATYYCHQYHRSPPTFGAGTKLELK
binding result [2]: no binding (tested: 10 nM or 100 nM)

B5: TR96 cIgG (chimeric, human IgG1/kappa) (antibody, V domains shown)
VH: EVQLQQSGAELVKPGASVKLSCTPSGFNIKDTYMHWVKQRPEQGLEWIGRIDPANGYTEYDPKFQDKATITADTSSNTAYLQLSSLTSEDTAVYYCADTQLYYWGQGTTLTVSS
VL: QIVLTQSPAIMSASLGERVTMTCTASSSVSSTYLHWYQQKPGSSPKLWIYSTSNLASGVPARFSGSGSGTSYSLTISNMEAEDAATYYCHQYHRSPLTFGAGTKLELK
binding result [2]: no binding (tested: 10 nM or 100 nM)

B6: TR92 chimeric conventional IgG (antibody, V domains shown)
VH: KVQLQQSGAELVKPGASVKLSCKASGYTFTESIIHWVKQRSGQGLEWIGWFYPGSDNINYNEKFKDKATLTADKSSSTVYMELTRLTSEDSAVYFCASHEGPYVYFDYWGQGTTLTVSS
VL: DIVMTQSHKFMSTSVGDRVSITCKASQDVSTAVAWYQQKPGQSPKLLIYWTSTRHTGVPDRFTGSGSGTDYTLTISSVQAEDLALYYCQHHYSTPYTFGGGTKLEIQ
Kd [1]: 4 nM

B7: TR92 cIgG (chimeric, human IgG1/kappa) (antibody, V domains shown)
VH: KVQLQQSGAELVKPGASVKLSCKASGYTFTESIIHWVKQRSGQGLEWIGWFYPGSDNINYNEKFKDKATLTADKSSSTVYMELTRLTSEDSAVYFCASHEGPYVYFDYWGQGTTLTVSS
VL: DIVMTQSHKFMSTSVGDRVSITCKASQDVSTAVAWYQQKPGQSPKLLIYWTSTRHTGVPDRFTGSGSGTDYTLTISSVQAEDLALYYCQHHYSTPYTFGGGTKLEIQ
binding result [2]: no binding (tested: 10 nM or 100 nM)

B8: TR109 chimeric conventional IgG (antibody, V domains shown)
VH: QVQLKESGPGLVAPSQSLSITCTVSGFSLTVYGVNWVRQPPGKGLEWLGMIWGDGSTAYNSALKSRLTITKDNSKTQVFLKMNSLQTDDTARYYCARDGRRYALDYWGQGTSVTVSS
VL: DIVLTQSPTSLAVSLGQRATISCRASESVDSYGDSFLHWYQQKPGQPPILLIYRASNLDSGIPARFSGSGSRTDFTLTINPVEADDVATYYCQQSNEDPYTFGGGTKLEIK
Kd [1]: 5.6 nM

B9: TR109 cIgG (chimeric, human IgG1/kappa) (antibody, V domains shown)
VH: QVQLKESGPGLVAPSQSLSITCTVSGFSLTVYGVNWVRQPPGKGLEWLGMIWGDGSTAYNSALKSRLTITKDNSKTQVFLKMNSLQTDDTARYYCARDGRRYALDYWGQGTSVTVSS
VL: DIVLTQSPTSLAVSLGQRATISCRASESVDSYGDSFLHWYQQKPGQPPILLIYRASNLDSGIPARFSGSGSRTDFTLTINPVEADDVATYYCQQSNEDPYTFGGGTKLEIK
binding result [2]: no binding (tested: 10 nM or 100 nM)
